This data set addresses Mt-PolDom K217A (UniProt P9WNV3 1-300, K217A). Kind of data set: EMSA. Conditions: protein: recombinant; label: 32P 5'-end label.

The text below walks through data of article PMC3898472, “Molecular Basis for DNA Double-Strand Break Annealing and Primer Extension by an NHEJ DNA Polymerase”.

B1: 1-nt gapped SP1C/T13C/DG-P (dsDNA)
DNA 1: AGAAGTGTATCTAGTACTCACTGTGATC
DNA 2: GATCACAGTGAGTAC
DNA 3: AGATACACTTCT
modifications: 5'-phosphate on DG
For B1, the binding result is listed as “binds”.
